Measured values published in US20120238493A1 (INDIANA UNIVERSITY RESEARCH AND TECHNOLOGY, published 2012).
Like-named read-outs stand apart in the source and are kept apart here. *1 amine or outer side, *2 acyl side, *3 side chain or, on linkers, in order; H or OH if unused. Where no end group is shown, it is not given here. Side-chain parts run from the residue outwards. [ ]: non-standard residue; d: D form. The star is where a group is joined. Isobutyryl(2-imidazol-4-yl) = CC(C)(C(=O)*)c1c[nH]cn1; γGlu = O=C(O)[C@H](CCC(=O)[*:2])N[*:1]; Palmitoyl = CCCCCCCCCCCCCCCC(=O)*; Lauroyl = CCCCCCCCCCCC(=O)*; 40K‑TE = not defined here; Ac3c = NC1(C(=O)O)CC1; Aib = CC(C)(N)C(=O)O

Key:
Experiment in all cases: cell-based or functional assay
[1] = target: T1, glucagon receptor (UniProt P47871 26-477, limits assumed)
[2] = target: T2, GLP-1 receptor (UniProt P43220 24-463, limits assumed)
[3] = target: T3, GIP receptor (UniProt P48546 22-466, limits assumed)
T3 sequence (looked up): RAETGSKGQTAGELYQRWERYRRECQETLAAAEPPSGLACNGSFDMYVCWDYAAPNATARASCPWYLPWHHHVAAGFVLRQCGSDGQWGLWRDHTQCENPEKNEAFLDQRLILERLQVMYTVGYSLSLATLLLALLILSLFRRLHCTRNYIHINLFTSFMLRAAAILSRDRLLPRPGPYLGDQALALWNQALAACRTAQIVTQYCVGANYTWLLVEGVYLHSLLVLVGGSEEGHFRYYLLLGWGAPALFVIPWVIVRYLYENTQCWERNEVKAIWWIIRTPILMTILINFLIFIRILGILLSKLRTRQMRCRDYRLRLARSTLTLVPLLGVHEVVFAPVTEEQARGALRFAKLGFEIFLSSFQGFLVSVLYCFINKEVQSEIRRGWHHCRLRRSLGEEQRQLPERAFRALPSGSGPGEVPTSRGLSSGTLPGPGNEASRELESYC

[4] = target: T1, glucagon receptor; remark: listed apart in the source
[5] = target: T2, GLP-1 receptor; remark: listed apart in the source
[6] = target: T3, GIP receptor; remark: listed apart in the source

T1 sequence (P47871 26-477 limits assumed): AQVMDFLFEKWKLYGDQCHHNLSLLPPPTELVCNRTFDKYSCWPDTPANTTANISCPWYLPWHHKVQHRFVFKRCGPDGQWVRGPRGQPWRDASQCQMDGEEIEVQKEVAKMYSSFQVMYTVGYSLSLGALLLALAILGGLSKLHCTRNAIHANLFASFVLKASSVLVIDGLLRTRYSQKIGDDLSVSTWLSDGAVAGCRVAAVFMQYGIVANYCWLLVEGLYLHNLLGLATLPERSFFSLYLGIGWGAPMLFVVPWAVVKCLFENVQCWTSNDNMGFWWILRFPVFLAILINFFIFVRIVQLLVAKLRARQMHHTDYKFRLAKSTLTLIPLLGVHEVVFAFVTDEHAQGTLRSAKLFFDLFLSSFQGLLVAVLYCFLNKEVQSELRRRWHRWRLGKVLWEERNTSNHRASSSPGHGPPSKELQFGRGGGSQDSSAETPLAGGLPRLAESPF

## H[Aib]QGTFTSDKSKYLD[Aib]RAAQDFVQWLKDGGPSSGAPPPS-NH2 (not fully specified (residue 10)) [Analog No. 54: Aib2, K10acyl, Aib16, A18, K27, D28, G29 + CEX (SEQ ID NO: 36)]
[1]
  EC50 (cAMP reporter): 0.008 nM
[2]
  EC50 (cAMP reporter): 0.004 nM
[3]
  EC50 (cAMP reporter): 0.171 nM

## H[Aib]EGTFTSDK(Palmitoyl)SKYLDERRA[Aib]DFVQWLLDGGPSSGAPPPS-NH2 [Analog No. 65: Aib2, E3, K10acyl, E16, Aib20, L27, D28, G29 + CEX (SEQ ID NO: 41)]
[1]
  EC50 (cAMP reporter): 0.221 nM
[2]
  EC50 (cAMP reporter): 0.006 nM
[3]
  EC50 (cAMP reporter): 0.013 nM

## Y[Aib]QGTFTSDYSIYLDKQAA[Aib]EFVC(40K‑TE PEG)WLLAGGPSSGAPPPSK(C8)-NH2 [peptide of SEQ ID NO: 172]
[4]
  EC50 (cAMP reporter): 3.06 nM
[5]
  EC50 (cAMP reporter): 0.108 nM
[6]
  EC50 (cAMP reporter): 0.487 nM

B1: peptide of SEQ ID NO: 80 (peptide)
peptide: H[Aib]EGTFTSDK([γGlu-Palmitoyl])SKYLDERAAQDFVQWLLDGGPSSGAPPPS-NH2
modifications: N-terminus assumed
SMILES: CCCCCCCCCCCCCCCC(=O)N[C@@H](CCC(=O)NCCCC[C@H](NC(=O)[C@H](CC(=O)O)NC(=O)[C@H](CO)NC(=O)[C@@H](NC(=O)[C@H](Cc1ccccc1)NC(=O)[C@@H](NC(=O)CNC(=O)[C@H](CCC(=O)O)NC(=O)C(C)(C)NC(=O)[C@@H](N)Cc1c[nH]cn1)[C@@H](C)O)[C@@H](C)O)C(=O)N[C@@H](CO)C(=O)N[C@@H](CCCCN)C(=O)N[C@@H](Cc1ccc(O)cc1)C(=O)N[C@@H](CC(C)C)C(=O)N[C@@H](CC(=O)O)C(=O)N[C@@H](CCC(=O)O)C(=O)N[C@@H](CCCNC(=N)N)C(=O)N[C@@H](C)C(=O)N[C@@H](C)C(=O)N[C@@H](CCC(N)=O)C(=O)N[C@@H](CC(=O)O)C(=O)N[C@@H](Cc1ccccc1)C(=O)N[C@H](C(=O)N[C@@H](CCC(N)=O)C(=O)N[C@@H](Cc1c[nH]c2ccccc12)C(=O)N[C@@H](CC(C)C)C(=O)N[C@@H](CC(C)C)C(=O)N[C@@H](CC(=O)O)C(=O)NCC(=O)NCC(=O)N1CCC[C@H]1C(=O)N[C@@H](CO)C(=O)N[C@@H](CO)C(=O)NCC(=O)N[C@@H](C)C(=O)N1CCC[C@H]1C(=O)N1CCC[C@H]1C(=O)N1CCC[C@H]1C(=O)N[C@@H](CO)C(N)=O)C(C)C)C(=O)O
[4]
  EC50 (cAMP reporter): 1.28 nM
[5]
  EC50 (cAMP reporter): 0.008 nM
[6]
  EC50 (cAMP reporter): 0.026 nM

## H[Aib]QGTFISDYSIYLDKQAA[Ac3c]EFVNWLLAGGPSSGAPPPSC(40K‑TE)-NH2 (not fully specified; reading uncertain) [peptide of SEQ ID NO: 74]
[4]
  EC50 (cAMP reporter): 2.52 nM
[5]
  EC50 (cAMP reporter): 6.42 nM
[6]
  EC50 (cAMP reporter): 2.54 nM

## [Isobutyryl(2-imidazol-4-yl)][dS]QGTFTSDKSKYLDERAAQDFVQWLLDT-NH2 (not fully specified (residue 10)) [Analog No. 44: DMIA1, dSer2, K10acyl, E16, A18, L27, D28 (SEQ ID NO: 32)]
[1]
  EC50 (cAMP reporter): 0.004 nM
[2]
  EC50 (cAMP reporter): 0.003 nM
[3]
  EC50 (cAMP reporter): 0.103 nM

B2: peptide of SEQ ID NO: 81 (peptide)
peptide: Y[Aib]QGTFTSDK([γGlu-γGlu-Palmitoyl])SIYLDKQAA[Aib]EFVNWLLAGGPSSGAPPPS-NH2
modifications: N-terminus assumed
SMILES: CCCCCCCCCCCCCCCC(=O)N[C@@H](CCC(=O)N[C@@H](CCC(=O)NCCCC[C@H](NC(=O)[C@H](CC(=O)O)NC(=O)[C@H](CO)NC(=O)[C@@H](NC(=O)[C@H](Cc1ccccc1)NC(=O)[C@@H](NC(=O)CNC(=O)[C@H](CCC(N)=O)NC(=O)C(C)(C)NC(=O)[C@@H](N)Cc1ccc(O)cc1)[C@@H](C)O)[C@@H](C)O)C(=O)N[C@@H](CO)C(=O)N[C@H](C(=O)N[C@@H](Cc1ccc(O)cc1)C(=O)N[C@@H](CC(C)C)C(=O)N[C@@H](CC(=O)O)C(=O)N[C@@H](CCCCN)C(=O)N[C@@H](CCC(N)=O)C(=O)N[C@@H](C)C(=O)N[C@@H](C)C(=O)NC(C)(C)C(=O)N[C@@H](CCC(=O)O)C(=O)N[C@@H](Cc1ccccc1)C(=O)N[C@H](C(=O)N[C@@H](CC(N)=O)C(=O)N[C@@H](Cc1c[nH]c2ccccc12)C(=O)N[C@@H](CC(C)C)C(=O)N[C@@H](CC(C)C)C(=O)N[C@@H](C)C(=O)NCC(=O)NCC(=O)N1CCC[C@H]1C(=O)N[C@@H](CO)C(=O)N[C@@H](CO)C(=O)NCC(=O)N[C@@H](C)C(=O)N1CCC[C@H]1C(=O)N1CCC[C@H]1C(=O)N1CCC[C@H]1C(=O)N[C@@H](CO)C(N)=O)C(C)C)[C@@H](C)CC)C(=O)O)C(=O)O
[4]
  EC50 (cAMP reporter): 0.073 nM
[5]
  EC50 (cAMP reporter): 0.008 nM
[6]
  EC50 (cAMP reporter): 0.005 nM

## H[Aib]QGTFTSDKSKYLD[Aib]RAAQDFVQWLMDGGPSSGAPPPS-NH2 (not fully specified (residue 10)) [Analog No. 49: Aib2, K10acyl, Aib16, A10, D28, G29 + CEX (SEQ ID NO: 33)]
[1]
  EC50 (cAMP reporter): 0.005 nM
[2]
  EC50 (cAMP reporter): 0.004 nM
[3]
  EC50 (cAMP reporter): 0.248 nM

## H[dS]QGTFTSDKSKYLDERRA[Aib]EFVQWLLDT-NH2 (not fully specified (residue 10)) [Analog No. 36: dSer2, K10acyl, E16, Aib20, E21, L27, D28 (SEQ ID NO: 30)]
[1]
  EC50 (cAMP reporter): 0.008 nM
[2]
  EC50 (cAMP reporter): 0.0031 nM
[3]
  EC50 (cAMP reporter): 0.25 nM

## Y[Aib]EGTFTSDYSIYLDKQAA[Aib]EFVNWLLAGGPSSGAPPPSC(PEG 40 kDa)-NH2 [peptide of SEQ ID NO: 175]
[4]
  EC50 (cAMP reporter): 0.62 nM
[5]
  EC50 (cAMP reporter): 0.066 nM
[6]
  EC50 (cAMP reporter): 0.1 nM

## H[Aib]QGTFTSDKSKYLDERAAQDFVQWLLDGRG-NH2 (not fully specified (residue 10)) [Analog No. 34: Aib2, K10acyl, E16, A18, L27, D28, GRG29-31 (SEQ ID NO: 29)]
[1]
  EC50 (cAMP reporter): 0.007 nM
[2]
  EC50 (cAMP reporter): 0.003 nM
[3]
  EC50 (cAMP reporter): 0.064 nM

## Y[Aib]QGTFISDYSIYLDKQAA[Ac3c]EFVNWLLAGGPSSGAPPPSC(40K‑TE)-NH2 (not fully specified; reading uncertain) [peptide of SEQ ID NO: 75]
[4]
  EC50 (cAMP reporter): 3.12 nM
[5]
  EC50 (cAMP reporter): 17.7 nM
[6]
  EC50 (cAMP reporter): 2.44 nM

## YXEGTFTSDYSIYLDKQAAXEFVNWLLAGGPSSGAPPPSC (not fully specified; aib at 2; acpc at 20; C-terminal C(40K-TE); NH2) [peptide of SEQ ID NO: 73]
[4]
  EC50 (cAMP reporter): ~10 nM
[5]
  EC50 (cAMP reporter): 0.91 nM
[6]
  EC50 (cAMP reporter): 1.56 nM

## H[Aib]EGTFTSDKSKYLDERRA[Aib]EFVQWLLDT-NH2 (not fully specified (residue 10)) [Analog No. 64: Aib2, E3, K10acyl, E16, Aib20, E21, L27, D28 (SEQ ID NO: 40)]
[1]
  EC50 (cAMP reporter): 0.042 nM
[2]
  EC50 (cAMP reporter): 0.006 nM
[3]
  EC50 (cAMP reporter): 0.024 nM

## Y[Aib]QGTFTSDYSIYLDKQAA[Aib]EFVC(40K‑TE PEG)WLLAGGPSSGAPPPSK(Lauroyl)-NH2 [peptide of SEQ ID NO: 173]
[4]
  EC50 (cAMP reporter): 0.19 nM
[5]
  EC50 (cAMP reporter): 0.011 nM
[6]
  EC50 (cAMP reporter): 0.089 nM

B3: peptide of SEQ ID NO: 79 (peptide)
peptide: H[Aib]QGTFTSDK([γGlu-Palmitoyl])SKYLDERRA[Aib]EFVQWLLDGGPSSGAPPPS-NH2
modifications: N-terminus assumed
SMILES: CCCCCCCCCCCCCCCC(=O)N[C@@H](CCC(=O)NCCCC[C@H](NC(=O)[C@H](CC(=O)O)NC(=O)[C@H](CO)NC(=O)[C@@H](NC(=O)[C@H](Cc1ccccc1)NC(=O)[C@@H](NC(=O)CNC(=O)[C@H](CCC(N)=O)NC(=O)C(C)(C)NC(=O)[C@@H](N)Cc1c[nH]cn1)[C@@H](C)O)[C@@H](C)O)C(=O)N[C@@H](CO)C(=O)N[C@@H](CCCCN)C(=O)N[C@@H](Cc1ccc(O)cc1)C(=O)N[C@@H](CC(C)C)C(=O)N[C@@H](CC(=O)O)C(=O)N[C@@H](CCC(=O)O)C(=O)N[C@@H](CCCNC(=N)N)C(=O)N[C@@H](CCCNC(=N)N)C(=O)N[C@@H](C)C(=O)NC(C)(C)C(=O)N[C@@H](CCC(=O)O)C(=O)N[C@@H](Cc1ccccc1)C(=O)N[C@H](C(=O)N[C@@H](CCC(N)=O)C(=O)N[C@@H](Cc1c[nH]c2ccccc12)C(=O)N[C@@H](CC(C)C)C(=O)N[C@@H](CC(C)C)C(=O)N[C@@H](CC(=O)O)C(=O)NCC(=O)NCC(=O)N1CCC[C@H]1C(=O)N[C@@H](CO)C(=O)N[C@@H](CO)C(=O)NCC(=O)N[C@@H](C)C(=O)N1CCC[C@H]1C(=O)N1CCC[C@H]1C(=O)N1CCC[C@H]1C(=O)N[C@@H](CO)C(N)=O)C(C)C)C(=O)O
[4]
  EC50 (cAMP reporter): 0.004 nM
[5]
  EC50 (cAMP reporter): 0.006 nM
[6]
  EC50 (cAMP reporter): 0.003 nM

## H[dS]QGTFTSDKSKYLDERAAQDFVQWLLDGGPSSGAPPPS-NH2 (not fully specified (residue 10)) [Analog No. 29: dSer2, K10acyl, E16, A18, L27, D28, G29 + CEX (SEQ ID NO: 27)]
[1]
  EC50 (cAMP reporter): 0.003 nM
[2]
  EC50 (cAMP reporter): 0.002 nM
[3]
  EC50 (cAMP reporter): 0.085 nM

## H[Aib]QGTFTSDK(Palmitoyl)SKYLD[Aib]RAAQDFVQWLVKGGPSSGAPPPS-NH2 [Analog No. 53: Aib2, K10acyl, Aib16, A18, V27, K28, G29 + CEX (SEQ ID NO: 35)]
[1]
  EC50 (cAMP reporter): 0.011 nM
[2]
  EC50 (cAMP reporter): 0.005 nM
[3]
  EC50 (cAMP reporter): 0.073 nM
